Laboratory results reported in the nanobody polyreactivity screen of Harvey et al. (2022).

assay: yeast display, Sf9 membrane polyspecificity reagent, FACS + sequencing; frameworks hold sequencing errors
In short: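 Nanobodies came from a synthetic yeast display library in Saccharomyces cerevisiae BJ5465, induced with galactose for 36–48 hours and stained for 1 hour at 4 °C with 10% biotinylated, detergent-solubilized Sf9 membrane reagent. Cells were enriched on streptavidin microbeads and then FACS-sorted, with low and high (top ~1%) gates set on anti-HA fluorescence for expression and streptavidin fluorescence for reagent binding. Each polyreactivity label reflects the gate a clone came from. Genes were amplified by colony PCR, sequenced by MiSeq 2 × 250 and filtered by CDR length.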

| Sequence | polyreactivity (PSR sort gate) |
| --- | --- |
| QVQLVESGGGLVQAGGSLRLSCAASGSIFPANAMGWYRQAPGKERELVAAISRRGGNTNYADSVKGRFTISRDNAKNTVYLQMNSLKPEDTAVYYCAAYYYYRRYDYWGQGTQVTVSS | high polyreactivity |
| QVQLVESGGGLVQAGGSLRLSCAASGFIFGYNAMGWYRQAPGKERELVAAMDWSGTSTYYADSVKGRFTISRDNAKNTVYLQMNSLKPEDTAVYYCAKVSRRGIVGYWGQGTQVTVSS | high polyreactivity |
| QVQLVESGGGLVQAGGSLRLSCAASGFTFYRYGMGWYRPPPGKERELVAAINNDGTTNYADSVKGRFTISRDNAKNTVYLQLNSLKPEDTAVYYCAADYYRGRYSYRYDYWGQGTQVTVSS | low polyreactivity |
| QVQLVESGGGLVQAGCSLRLSCAASGSTFTYYAMGWYRQAPGKERESVAAISSNGGSTSYADSVKGRFTISRDNAKNTVYLQMNSLKPEDTAVYYCAARSKRLAHDYWGQGTQVTVSS | high polyreactivity |
| QVQLVESGGGLVQAGGSLRLSSAASGRIFDDNAMGWYRQAPGKERELVAAITGPDDSTDYADSVKGRFTISRDNAKNTVYLQMNSLKPEDTAVYYCAKDAGYWYYWNGYWGQGTQVTVSS | high polyreactivity |
| QVQLVESGGGLVQAGGSLRLSCAASGFIFYKNAKGWYRQAPGKERELVAAISQIGGTTYYADSVKGRFTISRDNAKNTVYVQMNSLKPEDTAVYYCAASRRVQSDYWGQGTQVTVSS | high polyreactivity |
| QVQLVESGGGLVQAGGSLRLSCAASGSIYGPYAMGLYRQAPGKERELVAAISSGGSTYYADSVKGRFTISRDNAKNTVYLQMNSLKPEDTAVYYCNKYWGFSYLPYDSWGQGTQVTVSS | low polyreactivity |
| QDQLVESGGGLVQAGGSLRLSCAASGSTFGFNAMGWDRQAPGKERELVAAITWSGGSTYYADSVKGRFTISRDNAKNTVYLQMNSLKPEDTAVYYCARETYGDYVHYDYWGQGTQVTLSS | low polyreactivity |
| QVQLVESGGGLVQAGGSLRLSCAASVYIFVPYTLGWYRQAPGKERELVAAITRSGGSTYYADSVKGRFTISRDNAKNTVSLQMNSLKPEDTAVYYCATVGGPRWVRAQYDYWGQGTQVTVSS | high polyreactivity |
| QVQLVESGGGLVQAVGSLRLSCAASGSTLTSYGMGWYRQAPGKERELVAAISRNGGGTYYADSVKGRFTISRDNAKNTVYLQMNSLKPEDTAGYYCAVVRYSSRYDYWGQGTQVTVSS | high polyreactivity |
| QVQLVESGGGLVQAGGSLRLSCAASGIIFQPYAMGWYRQAPGKERELVAAITYSGDGTFYADSVKGRFTISRDNAKNTVYLQMNSLKPEDTAVYYCAAYPRDPYKEYDYWGQGTQVTVSS | low polyreactivity |
| QVQLVESGGGLVQAGGSLRLSCAASGRTFGKYAMGWYRQAPGKESELVAAITNSGGSTYYADSVKGRFTISRDNAKNTVYLQMNSLKPEDTAVYYCNRLGYRGPSKLNHMGYWGQGTQVTVSS | high polyreactivity |
| QVQIVESGGGLVQAGGSLRLSCAASGSIFVNNAMGWYRQAPGKVRELVARISFSGGSTYYADSVKGRFTISRDNAKNTVYLQMISLNPEDTAVYYCAKTVLRTESGWWIKFDYWGQVTQVTVSS | low polyreactivity |
| QVQLVESGGGLVQAGGSLRLSCASSGRTFSYYAMGWYRQAPGKERELVAAISTSGGSTYYADSVKGRFTISRDNAKNTVYLQMNSLKPEDTAVYYWAASPYLRFLYGGFGYWGQGTEVTVSS | high polyreactivity |
| QVQLVESGGGLVQAGGSLRLSCAASGFIFSKNVMGWYRQAPGKERELVARITRSGGTTYYADSVKGRFTISRDNAKNTVYLQMNSLKPEDTAVYYCAARRYGSTSISWYDYWGQGTQVTVSS | high polyreactivity |
| QVQLVESGGGLVQAGGSLRLSCAASGMGWYRQAPGKERELVAAITSGDSTNYADSVKGRFTISRDNAKNTVYLQMNSLKPEDTAVYYCAADPDYLYAYYYWGQGSQVTVSS | low polyreactivity |
| QVQLVESGGGLVQAGGSLRLSCASSGSTLFPYAMGWYRQAPGKERELVAAISSRGGRTYYADSVKGRFTISRDNAKNTVYLQMNSLKPEDTAVYYCAAGDDYWGQGTQVTVSS | high polyreactivity |
| QVQLVESGGGLVQAGGSLRLSCAASGSIYYRNGMGWYRQAPGKEREFVATITNNGGNTYYADSVKGRFTISRDNAKNTVYLQLNSLKPDDTAVYYCAAGPTWSWGYYYWGQGTQVTVSS | high polyreactivity |
| QVQLVESGGGLVQAGGSLRLSCAASGRIFSNNAIGWYRQAPGKARELVAAHSWNGGRTYYADSVKGRFTISRDNGKNTVYLQMNSLQPEDPAVYYCTKHDAQTRSFASTWYVYWGQGTQVTVSS | high polyreactivity |
| QVQLVESGGGLVQAGGSLRLSCAASGSIFRYNAMGWYRQAPGKERELVAAITWSGGSTYYADSVKGRFTISRDNAKNTVYLQMNSLKPEDTAVYYCAASPYPHYRRYTGGFYYWGQGTQVTVSS | high polyreactivity |
| QVQLVESGGGLVQAGGSLRLSCAASGRIFDCYAMGWYIQAPGKERELVAAIRASGGRTYYADSVKGRFTISRDNAKNTVYLQMNSLKPEDTAVYYCAADSVKYGGDYWGQGTQVTVSS | high polyreactivity |
| QVQLVESGGCLVQAGGSLRLSCAASGITFYEYAMGWSRQAPGKERELVAGITWSGGSTYYADSVKGRFTISRDNAKNTVYLEMNSLKPEDTAVYYCAATGAFWYPYDYWGQGTQVTVSS | high polyreactivity |

| Sequence | polyreactivity (PSR sort gate) |
| --- | --- |
| QVQLVESGGGLVQAGGSLRLSCAASGSIFYFYAMGWYRQAPGKERELVAAITSGGSTYYADSVEGRFTISRDNAKNTVYLQMNSLKPEDTAVYYCNAVSSYGYDYWGQGTQVTVSS | high polyreactivity |
| QVQLVESGGGLVQAGGSLRLSCAASRLTFAGNAMGWYRQAPGKEREFVATITWSDGSTRYADSVKGRFTISRDNAKNSVYLQMNSLKPEDTAVSYCNTQYPDYFYEFNYWGQGTQVTVSW | low polyreactivity |
| QVQLVESGGGLVQAGGSLRLSCAASGSNFLPNAMGWYRQAPGKERELVAAISWSDDSTYYADSVKGRFTISRDNAKNTVDLQMNSLNPEDTAVYYCAADVGLWYDYWGQGTQVTVSS | high polyreactivity |
| QVQLVESGGGLVQAGGSLRLSCAASGSIFYHNAMGWYRQAPGKERELVAAITWSGSTTYYADSVKGRFTISRDNAKKTVYLQMNSLKPEDTAVYYCNAGHRHGHYDYWGQGTQVTVSS | low polyreactivity |
| QVQLQESGGGLVRAGGSLRLSCAASGYISTSIAMGWYRQAPGKERELVASFGGGAITNYADSVKGFTISRDNGKNTVYLQMNCLKPEDTAVYYFAVYHGDRGYYSYWGQGTQVTVSS | low polyreactivity |
| QVQLVESGGGLVQAGGSLRLSCAASGSIFDGNAMGWYRQAPGKERELVAAITNSGGSTYYADSVKGRFTISRDNAKNTVYLQMNSLKPEDTAVYYCNALPFAWRRYRWVRTMYYWGQGTQVTVSS | low polyreactivity |
| QVQLVESGGGLVQAGGSLRFSCAASGSIFDYNAMGWYRQAPGKERELVAAIDWSGSSTYYADSVKGRFTISRDNAKNTVYLQMNSLKPEDTAVYYCNALAYYGMDYWGQGTQVTVSS | low polyreactivity |
| QVQLVESGGGLVQAGGSLRLSCAASGRTFYRNAMGWYRQAPGKERELVAAISWSGGRTFYADSVKGRFTISRDNAKNTVYLQMNSLKPEDTAVYYCAKTYTTPGYYRYDYWGQGTQVTVSS | high polyreactivity |
| QVQLVESGGGLVQAGGSLRLSCAASGYIFWSYAMGWYRQAPGKERELVAAISAYGCRTYYADSVKGRFTISRDNAKTTVYLQMNSLKPEDTAVYYCNADTGNHAYWYYGEFYYYTYDYWGQGTQVTVSS | low polyreactivity |
| QVQLEESGGGLVQAGGSLRLSCAATGSTFGYAMGWYSQATGKEGEWVAALTSTGGSTYYADSLKGRFTISRDKAKNTVDLQMNSLKPYDTAVYYCAADAYWIRSRFLYRIRYNYWGQGTQVTVSS | high polyreactivity |
| QVQLVESGGGLVQAGGSLRLSCAASGLTLQRYTMGWYRQAPGKERELVAAISRSGGGTYYADSVKGRFTISRDNAKNTVYLQMNSLKPEDTAVYYCNKVRGAVPWFDMDYWGQGTQVTVSS | high polyreactivity |
| QVQLVESGGGLLQAGGSLRLSCAASGFTIKYYAMGWYRPAPGKERELVAAIRGSGAGTYYADSVKGRFTISRDNAKNTVYLQMNSLKPEDTAVYYCNKRWTYQWDDYWGQGTQVTVSS | high polyreactivity |
| QDQLVESGGGLVQAGGSLRLSCAASGLNFRFYAMGWYRTATGKERELVAAISSRGGSTYYAHSVKGRFTISRDNSKNTFYLQMISLKPEDTWVYYCAADYGDEYEYCGQGTQVTVSS | high polyreactivity |
| QVQLVESGGGLVQAGVSLRLSCAASGRIFGTNAMGWYRQAPGKERELVADITSGGSTNYADSVKGRFTISRDTAKNTVYLQMNSLKPEDTALYYCAADVIGDMRWYRDEYRGQGTQVTVSS | low polyreactivity |
| QVQLVESGGGLVQAGGSLRLSCAASGRIFGPYAMGWYRQAPGKERELVATITWRTGSTYYADSVKGRFTISRDNAKNTVYLQMNSLKPEDTAVYYCAAQSRQAYITYGYWGQGTQVTVSS | high polyreactivity |
| QVQLVESGGGLVQAGGSLRLSCAASGRIFVANAMGWYRQAPGKERELVAAISGRGSRTYYADSVKGRFTISRDNAKNTVYLQMNSLKPEDTAVYYCAARYRYDGRYDYWGQGTQVTVSS | high polyreactivity |
| QVQLVESGGGLVQAGGSLRLSCAASGRTFPLYGMGWYRQAPGKERELVATISRSGGSTYYADSVKGRFTISRDNAKNTVYLQMNSLKPEDTAVYYCIADRHYVPYYSRPRYIPYDYWGQGTQVTVSS | high polyreactivity |
| QVQLVESGGGLVQAGGSLRLSCAASGSTFLYYAMGWYRQAPGKEREFVAAISKGSGRTYYADSVKGRFTISRDNAKNTVYLQLNSLKPEDTAVYYCAAAKWRGYPYQSDYWGQGTQVTVSS | high polyreactivity |
| QDQLVESGGGIVQAGGRLRLSCAASGSIFRYYAMGWYRQAPGKERDLVAAINWDGGSTYYADSVKGRFTISRDNAKNTVYLQMNSLKPEDTAVYYCATTSRVYAYGYRTSNYWGQGTQVTVSS | high polyreactivity |
| QVHLVESGVGLVQAGGSLRLSCAAYGYTFTRNAKGWSRQAPGKERELVAAISKRGGTTYYADSVKGRFTISRDNEKYSVYLQMNSLKPEDTAVYYCAKDGGITGGYWGQGTQVTVSS | high polyreactivity |
| QVQLVESGGGLVQAGGSLRLSCAASGSTFYFNAMGGYRQSPGKERELVAVIDGSGGFTYYADSVKGRFTISRDNAKNTVYLQMNSLKQEVTAVYDCNADLVYNTFLYSGGDEYDYWGQGTQVTVSS | high polyreactivity |
